Experimental data taken from patent US7851182 (CONARIS RESEARCH INSTITUTE, dated 2010).

B1: sgp130(D1-D3)S2-Fc (Fc fusion)
chain: ELLDPCGYISPESPVVQLHSNFTAVCVLKEKCMDYFHVNANYIVWKTNHFTIPKEQYTIINRTASSVTFTDIASLNIQLTCNILTFGQLEQNVYGITIISGLPPEKPKNLSCIVNEGKKMRCEWDGGRETHLETNFTLKSEWATHKFADCKAKRDTPTSCTVDYSTVYFVNIEVWVEAENALGKVTSDHINFDPVYKVKPNPPHNLSVINSEELSSILKLTWTNPSIKSVIILKYNIQYRTKDASTWSQIPPEDTASTRSSFTVQDLKPFTEYVFRIRCMKEDGKGYWSDWSEEASGITYEDGGGGSGGGGS
notes: D4-D6 replaced by two GGGGS repeats; No tags; not shown: IgG-Fc part; its beginning is printed as 'SCD'; detected with an anti-human IgG (Fc) antibody
B2: sgp130(D1-D3)S3-Fc (Fc fusion)
chain: ELLDPCGYISPESPVVQLHSNFTAVCVLKEKCMDYFHVNANYIVWKTNHFTIPKEQYTIINRTASSVTFTDIASLNIQLTCNILTFGQLEQNVYGITIISGLPPEKPKNLSCIVNEGKKMRCEWDGGRETHLETNFTLKSEWATHKFADCKAKRDTPTSCTVDYSTVYFVNIEVWVEAENALGKVTSDHINFDPVYKVKPNPPHNLSVINSEELSSILKLTWTNPSIKSVIILKYNIQYRTKDASTWSQIPPEDTASTRSSFTVQDLKPFTEYVFRIRCMKEDGKGYWSDWSEEASGITYEDGGGGSGGGGSGGGGS
notes: D4-D6 replaced by three GGGGS repeats; No tags; not shown: IgG-Fc part; its beginning is printed as 'SCD'; detected with an anti-human IgG (Fc) antibody
B3: sgp130(D1-D3)S0-Fc (Fc fusion)
chain: ELLDPCGYISPESPVVQLHSNFTAVCVLKEKCMDYFHVNANYIVWKTNHFTIPKEQYTIINRTASSVTFTDIASLNIQLTCNILTFGQLEQNVYGITIISGLPPEKPKNLSCIVNEGKKMRCEWDGGRETHLETNFTLKSEWATHKFADCKAKRDTPTSCTVDYSTVYFVNIEVWVEAENALGKVTSDHINFDPVYKVKPNPPHNLSVINSEELSSILKLTWTNPSIKSVIILKYNIQYRTKDASTWSQIPPEDTASTRSSFTVQDLKPFTEYVFRIRCMKEDGKGYWSDWSEEASGITYED
notes: No spacer between D3 and Fc; V5 and 6xHis tags are not present; also called sgp130(D1-D3)Fc; sgp130(D1-3)Fc; not shown: IgG-Fc part; its beginning is printed as 'SCD'; detected with an anti-human IgG (Fc) antibody
B4: sgp130(D1-D3)S1-Fc (Fc fusion)
chain: ELLDPCGYISPESPVVQLHSNFTAVCVLKEKCMDYFHVNANYIVWKTNHFTIPKEQYTIINRTASSVTFTDIASLNIQLTCNILTFGQLEQNVYGITIISGLPPEKPKNLSCIVNEGKKMRCEWDGGRETHLETNFTLKSEWATHKFADCKAKRDTPTSCTVDYSTVYFVNIEVWVEAENALGKVTSDHINFDPVYKVKPNPPHNLSVINSEELSSILKLTWTNPSIKSVIILKYNIQYRTKDASTWSQIPPEDTASTRSSFTVQDLKPFTEYVFRIRCMKEDGKGYWSDWSEEASGITYEDGGGGS
notes: D4-D6 replaced by one GGGGS repeat; No tags; not shown: IgG-Fc part; its beginning is printed as 'SCD'; detected with an anti-human IgG (Fc) antibody

What follows are binders tested against T1, IL-6/soluble IL-6 receptor complex (human, UniProt P05231 30-212; P08887 20-358, limits assumed) (assay: ELISA, coated Fc fusion, IL-6 + sIL-6R titrated, anti-sIL-6R detection).
T1 construct: also called IL-6/sIL-6R complex; IL-6/sIL-6R
Excerpt: Comparison of the IL-6/sIL-6R Complex Binding Properties of sgp130Fc and sgp130(D1-D3)S_n-Fc (A) Material The 96-well Microlon microtiter plates were purchased from Greiner Bio-One (Frickenhausen, Germany). Recombinant human IL-6 and soluble IL-6 receptor (sIL-6R) were obtained from BioSource (Solingen, Germany) and R&D Systems (Wiesbaden, Germany), respectively. The primary anti-sIL-6R antibody (clone M91, mouse IgG1) was from Beckman Coulter (Krefeld, Germany). The secondary anti-mouse IgG HRP-conjugated antibody from GE Healthcare (Freiburg, Germany) was the same as in the Western blotting experiments (see Example 1, A and C). Ready-to-use Tetramethylbenzidin (TMB) HRP substrate was purchased from Sigma-Aldrich (Taufkirchen, Germany).
For quality control and comparison between different lots of sgp130Fc variants, a standard ELISA was designed. All steps except for coating were carried out at room temperature, all washing steps were performed three times with a volume of 250 µl, and all conditions were measured in triplicate. A 96 well microtiter plate was coated with 100 ng/Well of original sgp130Fc as an internal standard and an equimolar quantity of sgp130(D1-D3)S_n-Fc in 100 µl PBS at 4° C. overnight. Thus, sgp130Fc and its variants served as capture reagent, while the bound sIL-6R was detected (see below). After washing with 0.05% Tween-20/PBS, wells were blocked with 200 µl/Well 3% BSA/PBS for 2 h. Subsequently, the blocking solution was removed, and wells were incubated for 1 h with a 1:2 dilution series (100 µl/Well) of recombinant human IL-6 (3.2 µg/ml to 50 ng/ml) and sIL-6R (1.6 µg/ml to 25 ng/ml) in 3% BSA/PBS. After washing with 0.05% Tween-20/PBS, wells were incubated with the primary anti-sIL-6R antibody diluted 1:2,000 in 3% BSA/PBS (100 µl/Well) for 1 h. Another series of three washing steps with 0.05% Tween-20/PBS was followed by a 1-h incubation with the secondary anti-mouse IgG HRP-conjugated antibody at 1:5,000 (100 µl/Well). After washing with 0.05% Tween-20/PBS and subsequently with dH_2O, plates were incubated with 100 µl/Well TMB substrate for about 5 min (depending on the intensity of the developing blue colour). The substrate reaction was stopped by adding 100 µl/Well 0.5 M sulfuric acid to the wells. Finally, the $A450$ was measured in a microplate reader.

| binding result | Binder |
| --- | --- |
| binds | B1 |
| binds | B2 |
| binds | B3 |
| binds | B4 |
